The record followed here is patent US20240101642A1.

The target of the test is phosphopeptide-ligated β2AR with a deletion of the third intracellular loop (β2ARppΔ238-267), in HDL particles (human), P07550. The experiment in a line: cell-based or functional assay.

B1: β-arrestin1, minimal cysteine and truncated variant of rat βarr1 (βarr1-MC-393), P29066 1-393 (protein, UniProt P29066 1-393, looked up)
chain: MGDKGTRVFKKASPNGKLTVYLGKRDFVDHIDLVDPVDGVVLVDPEYLKERRVYVTLTAAFRYGREDLDVLGLTFRKDLFVANVQSFPPAPEDKKPLTRLQERLIKKLGEHAYPFTFEIPPNLPSSVTLQPGPEDTGKAIGVDYEVKAFVAENLEEKIHKRNSVRLVIRKVQYAPERPGPQPTAETTRQFLMSDKPLHLEASLDKEIYYHGEPISVNVHVTNNTNKTVKKIKISVRQYADIVLFNTAQYKVPVAMEEADDTVAPSSTFSKVYTLTPFLANNREKRGLALDGKLKHEDTNLASSTLLREGANREILGIIVSYKVKVKLVVSRGGLLGDLASSDVAVELPFTLMHPKPKEEPPHREVPESETPVDTNLIELDTNDDDIVFEDFAR
In the case of B1, the fold increase of agonist affinity by the transducer is 10 fold and the log IC50 of isoproterenol (ISO), competition radioligand binding, in the presence of βarr1 (no transducer: -6.91+/-0.04) is -7.63 log.
